# Test: yeast display, Sf9 membrane polyspecificity reagent, FACS + sequencing; frameworks hold sequencing errors
# In short: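 Nanobodies from a synthetic yeast display library (Saccharomyces cerevisiae BJ5465), induced 36–48 hours with galactose, were stained 1 hour at 4 °C with 10% biotinylated, detergent-solubilized Sf9 membrane reagent, enriched on streptavidin microbeads, then FACS-sorted. Anti-HA (expression) and streptavidin (reagent binding) fluorescence set low and high (top ~1%) gates. Polyreactivity labels come from the gate of origin. Genes were colony-PCR amplified, MiSeq 2 × 250 sequenced and filtered by CDR length.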
row,Sequence,polyreactivity (PSR sort gate)
1,QVHLVESGGGLVQAGGSLRLRCAASGSTFGYYAMGWYRQAPGKERELVAAIRGSVTRTYYADSVKGRFTISRDNAKNTVYLEMNSLKPEDTAVYYCAAGSRLGWGSEYWGQGTQVTVSS,high polyreactivity
2,QVHLVESGGGLVQAGGSLRLSCAASALTDGRYAMGWYRQAPGKERELVADIRYRAGSTNYADSVKGRFTISRDNAKNTVYLQMNSLKPEDTAVYYCAKGHPNDFGYWGQGTQVTVSS,high polyreactivity
3,QVHLVESGGGLVQAGGSLRLSCAASARIFRYYTMGWNRQAPGKERELVAAISVSGGSTYYADSVKGRFTSSRDNAKNTVYILMNSLKPEDTAVYYCAAPFVWSSYRGYDYWGQGSQVTVSS,high polyreactivity
4,QVHLVESGGGLVQAGGSLRLSCAASGAMGWYRQAPGKERELVAAISSGNTNYADSVKGRFTISRDNAKNTVYLQMNSLKPEDTAVYYCAAEQPYGQKNTGLGVIDLDYWGQGTQVTVSS,low polyreactivity
5,QVHLVESGGGLVQAGGSLRLSCAASGFIFLHYAMGWYRQAPGKERELVAAINKSGGSTYYADSVKGRFTSSRDNAMYTDYLQMNSLKPEDTAVYYCNAVYYWFIGDYWGQGTQVTVSS,high polyreactivity
6,QVHLVESGGGLVQAGGSLRLSCAASGFIFSLYAMGWYRQAPGKERELVAAISKRGGSTNYADSVKGRFTISRDNAKNTVYLQMNSLKPEDTAVYYWAKARPGFLYDHWGQGTQVTVSS,high polyreactivity
7,QVHLVESGGGLVQAGGSLRLSCAASGFIFYYYAMGWYRQAPGKERELVASISAIGGGTYYADSVNGRFTISRDNAKNTVYLQMNSLKPEDTAVYYCDPDGDGWWWSYVDRYDYWGQGTQVTVSS,low polyreactivity
8,QVHLVESGGGLVQAGGSLRLSCAASGFILPYYAMGWYRQAPGKERELVAAISRSGGGTYYADSVKGRFTISRDNAKNTVYLQMNSLKPEDTAVYYCAADYSAYEYEYWGQGTQVTVSS,high polyreactivity
9,QVHLVESGGGLVQAGGSLRLSCAASGFPFGSYAMGWDRPAPGKERELVSGISRGGSTNYADSVKGRFTISRDNAKNTVYLQMNSLKPEDTAVYYCAARAVFVADTGATPAGYDYWGQGTQVTVSS,low polyreactivity
10,QVHLVESGGGLVQAGGSLRLSCAASGFTFDYYTMGWYRPAPGKERELVAAITSSAGSTDYADSVKGRFTISRDNAKNTVYLQMNSLKPEDTAVYYCNADFLYGTYDYWGQGTQVTVSS,low polyreactivity
11,QVHLVESGGGLVQAGGSLRLSCAASGFTFIRNGMGSYRQAPGKERELVAAINSRGGNTYYADSVKGRFTISRDNAKNTVYLQMNSLKPEDTAVYYCNRVVQRWSTQYGYWGQGTQVTVSS,high polyreactivity
12,QVHLVESGGGLVQAGGSLRLSCAASGFTFRRYAMGWYRQAPGKERELVAAISYGGGRTYYADSVKGRFTISRDNAKNTVYLQMNSLKPEDTAVYYCAADVQSRYVGEGDYWGQGTQVTVSS,high polyreactivity
13,QVHLVESGGGLVQAGGSLRLSCAASGFTFRYYGMGRYRQAPGKERELVAAISRGGSTNYADSVKGRFTISRDNAKNTVYLQMTSLKPEDTAVYYFAKAGLTYRALRYYWGQGTQVTVSS,high polyreactivity
14,QVHLVESGGGLVQAGGSLRLSCAASGFTFSTYTMGWYRQSPGKERELVAAIRRSGDSTYYADSVKGRFTISRDNAKNTVYLQMNSLKPVDTAVYYCNAVLYRFERFDYWGQGTQVTVSS,high polyreactivity
15,QVHLVESGGGLVQAGGSLRLSCAASGFTFVFYTMGWYRPAPGKERELVAAISHTGDSTYYADSVKGRFTISRDNAKNTVYFQMNSLKPEDTAVYYCATDLYTADPDPSPTYKFEYWGQGTQVTVSS,low polyreactivity
16,QVHLVESGGGLVQAGGSLRLSCAASGFTFYKYVMGWYRQAPGKERELVAAITTSGGSTYYADSVKGRFTISRDNAKNTVYLQMNSLKPEDTAVYYCNARSLHTSEGDYWGQGTQVTVSS,low polyreactivity
17,QVHLVESGGGLVQAGGSLRLSCAASGFTFYSYAMGWYRPPPGKEREFVAAITIGGGSTNYADSVKGRFTISRDIAKNTVYLQMNSLKPEDTAVYYCNVDYTLHFGYWGQGTQVTVSS,low polyreactivity
18,QVHLVESGGGLVQAGGSLRLSCAASGFTIDYYAMAWYRQAPGKERELDAAISRAGSTNYADSVKGRFTISRDNAKNTVYLQMNSLKPEDTAVYYCNKGYHSWSRLSQFGWSYDYWGQGTQVTVSS,high polyreactivity
19,QVHLVESGGGLVQAGGSLRLSCAASGGIFYINSMGWYRQAPGKERELVAAITGGASTYYADSVKGRFTISRDNAKNTVYLQMNSLNPEDTAVYYCAARPSSRRVYPAYLYGYWGQGTQVSVSS,high polyreactivity
20,QVHLVESGGGLVQAGGSLRLSCAASGGTIAFNGMGWYRQAPGKDRELVAAITWRSGSTYYADSVKGRFTISRDNPKNPVYLQMNSLKPDDTAVYYCNAARAVYTQKRFDSWGQGTQVTVSS,high polyreactivity
21,QVHLVESGGGLVQAGGSLRLSCAASGIIFRRYAMGWYRQAPGKERELVAAISSRGGSTYYADSVKRRFTISRDNAKNTVYLQMNSLKPEDTAVYYCAKGFSGTGGSGDFGYWGQGTQVTVSS,high polyreactivity

row,Sequence,polyreactivity (PSR sort gate)
1,QVHLVESGGGLVQAGGSLRLSCAASGITFEGYAMGWYRQAPGKERELVAAIRSSGTSTYYADSVKGRFTISRDNAKNTVYLQMNSLKPEDTAVYYCNRARSSSRYDYWGQGTQVTVSS,low polyreactivity
2,QVHLVESGGGLVQAGGSLRLSCAASGITFLKYAMGWYRQAPGKERELVARITSGGRTYYADSVKGRFTISRDNAKNTVYLLMNSLKPEDTAVYYCNAVKSYASLYAGFYYWGQGTHVTVSS,high polyreactivity
3,QVHLVESGGGLVQAGGSLRLSCAASGITFYRYAMGWYRLAPGTERELVAAISSSGGSTYYADSVKGRFTISRDNAKNTVYLQMNSLKPEDTAVYYCAAQYNVPRDKYYFWGQGTQVTVSS,high polyreactivity
4,QVHLVESGGGLVQAGGSLRLSCAASGLTFHVYAMGWYRQAPGKERELVAAISWSGGSTYYADSVKGRFTISRDNAKNTVYLQMNSLKPEDTAVYYCAAESLSQGIWYDYWGQGTQVTVSS,high polyreactivity
5,QVHLVESGGGLVQAGGSLRLSCAASGNTFGRYAMGWYRQAPGKEREFVAAIRWRGATTYYADSVKGRFTISRDNAKNTVDLQMNSLKPEDTAVYYCAAYYWGQGTGFDYWGQGTQVTVSS,high polyreactivity
6,QVHLVESGGGLVQAGGSLRLSCAASGRIFAGYARGWYRQAPGKERELVAAISDGGTTNYADSVKGRFTISRDNAKNTVYLQMNSLKPEDTAVYYGAKDAAESYRYGYWGQGTQVSVSS,low polyreactivity
7,QVHLVESGGGLVQAGGSLRLSCAASGRIFAYNAMGWYRQAPGKERELVAAITSRGTSTYYADSVKGRFTISRDNAKNTVYLQMNSLKQEDTAVYYCNADYNRNSVQVSLYDYWGQGTQVTVSS,low polyreactivity
8,QVHLVESGGGLVQAGGSLRLSCAASGRIFGAYTMGWYRQAPGKERELVAAIAGRTYYADSVKGRFTISRDNAKYTVYLQMNSLKPEETAVYYFADRYKSRNYDYWGQGTQVTVSS,high polyreactivity
9,QVHLVESGGGLVQAGGSLRLSCAASGRIFKTYAMRWYRQAPGKERELVAAITASGGRTYDADSVKGRFTISRDNAKNTVYLQMNSLTPEDSAVYYCAAPLLRDLRSPYYYNYWGQGTQVTVSS,low polyreactivity
10,QVHLVESGGGLVQAGGSLRLSCAASGRIFRRNTMGWYRQAPGKERELVAAITSSGGSTYADSVKGRFTISRDNAKNTVYLQMNSLKPEDTAVYYCATYVAYHRGYRTYDHWGQGTQVTVSS,low polyreactivity
11,QVHLVESGGGLVQAGGSLRLSCAASGRIFRRYAMGWSRQAPGKERELVAAISSGGSTYYADSVKGRFTISRDNAKNTVYLQMNSLKPEDTAVYYCNAKVGAYLNYGYWGQGTQVTVSS,low polyreactivity
12,QVHLVESGGGLVQAGGSLRLSCAASGRIFRYYAIGWYRQAPGKERELVAAITWRGDSTYYADSVKGRFTISRDNAKNTVYLQMNSLKPEDTAVYYCNKRWTDKYDSWGQGTQVTVSS,high polyreactivity
13,QVHLVESGGGLVQAGGSLRLSCAASGRIFSGYAMGWYRQAPGKERELVAAITSGASTNYADSVNGRFTISRDNPKITVYLQLNSLKPVVTAFYYCAATFHSWRGQYLWYDYWGQGTQVTVSS,low polyreactivity
14,QVHLVESGGGLVQAGGSLRLSCAASGRIFSSNAMGWYRQAPGKERELVAAISWIVGRTYYADSVKGRFTISRDNAKNTVYLQMNRLKPEDTAVYYCAKGSYYGRKRGWGYYYWGQGTQVTVSS,high polyreactivity
15,QVHLVESGGGLVQAGGSLRLSCAASGRIFTRNAMVWYRQAPGKERELVAAISHSGGSTYADSVKGRFTISRDNAKNTVYLQMNSLKPEDTAVYYCAAKYYFEWNSALDYWGQGTQVTVSS,low polyreactivity
16,QVHLVESGGGLVQAGGSLRLSCAASGRIFVTYAMGWYRQAPGKERELVAAIPWDGDSTYYADSVKGRFTFSRDNAKNTVYLQMNSLKREDTAVYYCNAKKFNSHVELGYDYWGQGTQVTVSS,low polyreactivity
17,QVHLVESGGGLVQAGGSLRLSCAASGRIFYSHAMGWYRQAPGKEREFVAAISWSGGGTYYADSVKGRFTISRDNAKNTVYLQMNSLKPQDTAVYYCAARFRYYGSEYDYWGQGTKVTVSS,low polyreactivity
18,QVHLVESGGGLVQAGGSLRLSCAASGRIIRYNAMGWYRQAPGKERELDAAITRSGGSTYYADSVKGRFTISRDNAKNTVYLQMNSLKPEDTGVYYCAKVQNGQWSTSGVPGDYQYNYWGQATQVTVSS,high polyreactivity
19,QVHLVESGGGLVQAGGSLRLSCAASGRNFSSYAMGWYRQAPGKEWELVAAIRRGGGSTSYADSVKGRFTISRDNAKKTVYLQMNSLKPEDTAVYYCAADSPRGQVHYIGGYWGHGTQVTVSS,low polyreactivity
20,QVHLVESGGGLVQAGGSLRLSCAASGRTFATNTMGWYRQAPGKEREFVAAISRGGVSTSYADSVKGRFTISRDNAKNTVYLQMNSLKPEDTAVYYCAAKHYGFNRNHRHSYDYWGQGTQVTVSS,high polyreactivity

# — the nanobody polyreactivity screen of Harvey et al. (2022)
